Experimental data taken from PMC6647829, “Copper–zinc superoxide dismutase (Sod1) activation terminates interaction between its copper chaperone (Ccs) and the cytosolic metal-binding domain of the copper importer Ctr1” (Biometals, 2019).

Assays:
Details in all cases: both partners purified
[1] = biological target: T1, Human wild-type copper chaperone for Sod1 (Ccs), His8-tag removed (human, UniProt O14618 1-274); assay: other fluorescence titration; HI-FI method, fluorescence quenching; 10 nM Alexa-546 Sod1 probe, completely immature (metal-free); Ccs titrated in increasing concentrations; fit in GraphPad Prism
T1 construct: Human wild-type Ccs1, UniProtKB O14618, cloned into pAG8H; Stripped of metals (apo) or Cu(I)-loaded as the experiment says; the methods tell its removal in general; also called Ccs1; WT Ccs; not shown: His8, N-terminal, cleaved
T1 sequence (looked up): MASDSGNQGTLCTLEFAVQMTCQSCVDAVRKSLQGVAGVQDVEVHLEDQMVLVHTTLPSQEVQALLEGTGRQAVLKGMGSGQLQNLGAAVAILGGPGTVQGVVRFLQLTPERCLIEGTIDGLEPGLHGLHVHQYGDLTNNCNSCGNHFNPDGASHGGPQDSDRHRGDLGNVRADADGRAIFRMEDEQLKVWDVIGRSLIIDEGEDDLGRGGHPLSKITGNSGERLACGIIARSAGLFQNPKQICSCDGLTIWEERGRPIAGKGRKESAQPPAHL

[2] = biological target: T2, Pre-made Cu(I)-Ctr1c·Ccs complex (human, UniProt O14618 1-274); assay: as above
T2 construct: Human wild-type Ccs1, UniProtKB O14618; as m2; C-terminal 13 amino acids of the human Ctr1 Cu(I)-transporter (Ctr1c), UniProtKB O15431; Held together through Cu(I); also called Cu(I)-Ctr1c complexed Ccs; Cu(I)-Ctr1c488·Ccs; source: formed from purified E. coli Ccs and the Cu(I)-loaded synthetic peptide; not shown: His8, N-terminal, cleaved

[3] = biological target: T1, Human wild-type copper chaperone for …; assay: other fluorescence titration; HI-FI method, fluorescence quenching; 10 nM Alexa-546 Sod1 probe, Zn-bound; apo-Ccs titrated in increasing concentrations; fit in GraphPad Prism

B1: H46R/H48Q/C146S Sod1 labelled with Alexa-546-C-maleimide (Sod1 probe) (enzyme)
chain: not shown
modifications: Alexa-546-C-maleimide label (residue not stated)
notes: Human Sod1, UniProtKB P00441, H46R/H48Q/C146S; the two states are told apart by the assay; also called completely immature Sod1; source: gel filtration after labelling
[1]
  Kd: 89 ± 11 nM
[2]
  Kd: 120 ± 27 nM
[3]
  Kd: 22 ± 6 nM
